How the values were obtained:
[1] = molecular target: T1, endogenous Siglec-15 on leukaemic cell lines (human, UniProt Q6ZMC9 20-328); assay: cell-based or functional assay
T1 sequence (looked up): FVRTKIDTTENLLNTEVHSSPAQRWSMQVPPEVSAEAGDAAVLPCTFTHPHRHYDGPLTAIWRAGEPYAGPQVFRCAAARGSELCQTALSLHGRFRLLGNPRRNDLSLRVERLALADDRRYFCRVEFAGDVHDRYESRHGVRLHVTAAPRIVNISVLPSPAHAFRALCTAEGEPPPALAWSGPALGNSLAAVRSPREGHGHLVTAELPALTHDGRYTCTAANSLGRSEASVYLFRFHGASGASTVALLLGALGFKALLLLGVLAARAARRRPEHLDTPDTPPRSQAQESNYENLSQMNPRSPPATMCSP

Siglec-9 on U937 cells = molecular target: T2, Siglec-9 on U937 cells (UniProt Q9Y336 18-463, limits assumed); assay: FACS on U937 cells
T2 construct: whole, on cells
T2 sequence (Q9Y336 18-463 limits assumed): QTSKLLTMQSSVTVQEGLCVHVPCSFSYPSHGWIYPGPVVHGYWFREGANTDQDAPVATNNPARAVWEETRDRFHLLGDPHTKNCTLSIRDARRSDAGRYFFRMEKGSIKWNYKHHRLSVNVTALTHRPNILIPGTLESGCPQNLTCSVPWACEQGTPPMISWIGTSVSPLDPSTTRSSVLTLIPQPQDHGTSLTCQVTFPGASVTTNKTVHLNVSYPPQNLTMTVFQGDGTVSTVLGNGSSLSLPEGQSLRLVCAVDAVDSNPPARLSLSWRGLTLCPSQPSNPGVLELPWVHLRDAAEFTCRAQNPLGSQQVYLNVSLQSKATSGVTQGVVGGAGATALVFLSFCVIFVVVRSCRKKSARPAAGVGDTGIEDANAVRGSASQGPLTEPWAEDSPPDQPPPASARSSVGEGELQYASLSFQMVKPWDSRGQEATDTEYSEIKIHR

Siglec-5 on U937 cells = molecular target: T3, Siglec-5 on U937 cells (UniProt O15389 17-551, limits assumed); assay: FACS on U937 cells
T3 construct: whole, on cells
T3 sequence (looked up): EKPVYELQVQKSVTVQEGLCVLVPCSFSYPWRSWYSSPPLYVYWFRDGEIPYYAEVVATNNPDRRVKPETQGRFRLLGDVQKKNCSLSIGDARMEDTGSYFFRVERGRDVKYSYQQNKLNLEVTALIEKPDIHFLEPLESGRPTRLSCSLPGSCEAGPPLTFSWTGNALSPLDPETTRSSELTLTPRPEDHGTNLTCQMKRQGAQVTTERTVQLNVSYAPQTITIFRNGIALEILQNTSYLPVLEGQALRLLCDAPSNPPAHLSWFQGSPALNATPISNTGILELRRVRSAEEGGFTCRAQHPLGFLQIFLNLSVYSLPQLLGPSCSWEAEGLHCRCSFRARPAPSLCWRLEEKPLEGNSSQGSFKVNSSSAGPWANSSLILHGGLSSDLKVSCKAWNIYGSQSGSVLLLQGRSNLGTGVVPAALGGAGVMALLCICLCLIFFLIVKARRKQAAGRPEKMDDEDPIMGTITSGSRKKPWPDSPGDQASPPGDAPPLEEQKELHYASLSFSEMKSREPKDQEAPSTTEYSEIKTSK

CD33 on U937 cells = molecular target: T4, CD33 on U937 cells (UniProt P20138 18-364, limits assumed); assay: FACS on U937 cells
T4 construct: whole, on cells
T4 sequence (P20138 18-364 limits assumed): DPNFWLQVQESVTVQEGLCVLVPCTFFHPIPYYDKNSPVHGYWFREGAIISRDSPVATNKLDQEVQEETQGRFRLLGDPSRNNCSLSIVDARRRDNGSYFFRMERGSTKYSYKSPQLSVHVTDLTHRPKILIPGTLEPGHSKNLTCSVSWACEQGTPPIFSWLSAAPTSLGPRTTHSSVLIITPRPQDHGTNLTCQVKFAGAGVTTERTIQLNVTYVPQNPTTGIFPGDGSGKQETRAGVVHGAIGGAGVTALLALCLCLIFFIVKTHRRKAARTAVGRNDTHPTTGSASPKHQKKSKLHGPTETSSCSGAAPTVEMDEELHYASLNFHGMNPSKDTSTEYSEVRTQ

B1: A9E8 monoclonal antibody (mouse IgG1 format) (antibody, V domains shown)
VH: QLQLQESGPGLVKPSETLSLTCAVSGASISNWWSWVRQPPGKGLEWIGEVHHSGVTTYKPSLKSRVTISVDNSKNQLSLKLTSVTAADTAVYYCAREFADDAFDIWGRGTMVTVSS
VL: SSELTQDPAVSVALGQTVRITCRGDSLRKYYASWYQQKPRQAPQLVIYHKNNRASGIPDRFSGSISGNTASLTITGAQAEDEAAYFCNSRDTSGNYLVFGGGTKVTVLG
notes: VH and VL from the phage scFv were cloned into a mouse IgG1 backbone and expressed as complete mouse IgG1; also called A9E8 antibody
half-life of endocytosis [1]: 2.9 min
binding result (Siglec-9 on U937 cells): no binding
binding result (Siglec-5 on U937 cells): no binding
binding result (CD33 on U937 cells): no binding

— patent US20150037356A1 (AstraZeneca / MedImmune, published 2015)
